T1: APBA2_1, Q99767
T1 sequence (Q99767 563-664, limits assumed, looked up): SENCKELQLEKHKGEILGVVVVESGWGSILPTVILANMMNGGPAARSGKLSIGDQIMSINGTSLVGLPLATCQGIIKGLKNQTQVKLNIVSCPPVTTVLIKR

T2: SHANK1, Q9Y566
T2 sequence (Q9Y566 658-767, limits assumed, looked up): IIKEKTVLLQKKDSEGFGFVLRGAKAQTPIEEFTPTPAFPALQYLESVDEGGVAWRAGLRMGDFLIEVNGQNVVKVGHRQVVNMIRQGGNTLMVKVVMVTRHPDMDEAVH

T3: FRMPD1, Q5SYB0
T3 sequence (Q5SYB0 52-145, limits assumed, looked up): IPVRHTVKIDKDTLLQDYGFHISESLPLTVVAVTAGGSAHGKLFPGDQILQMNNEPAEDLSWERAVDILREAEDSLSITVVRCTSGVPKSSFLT

T4: SYNJ2BP, P57105
T4 sequence (P57105 8-110, limits assumed, looked up): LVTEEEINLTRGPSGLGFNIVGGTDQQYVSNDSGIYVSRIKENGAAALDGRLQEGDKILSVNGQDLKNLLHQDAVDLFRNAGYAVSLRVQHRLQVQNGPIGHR

T5: SNTB1, Q13884
T5 sequence (Q13884 107-205, limits assumed, looked up): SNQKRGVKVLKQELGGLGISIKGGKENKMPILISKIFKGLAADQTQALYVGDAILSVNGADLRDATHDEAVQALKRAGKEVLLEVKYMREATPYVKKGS

T6: ARHGAP21, Q5T5U3
T6 sequence (Q5T5U3 45-169, limits assumed, looked up): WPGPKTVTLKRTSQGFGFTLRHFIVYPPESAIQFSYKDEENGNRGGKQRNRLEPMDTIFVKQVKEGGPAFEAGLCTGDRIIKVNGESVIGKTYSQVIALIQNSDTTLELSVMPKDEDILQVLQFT

T7: GRIP1_5, Q9Y3R0
T7 sequence (Q9Y3R0 568-668, limits assumed, looked up): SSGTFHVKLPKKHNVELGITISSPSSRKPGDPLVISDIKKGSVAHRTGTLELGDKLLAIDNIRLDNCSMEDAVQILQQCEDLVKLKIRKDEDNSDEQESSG

T8: DLG3_2, Q92796
T8 sequence (Q92796 221-321, limits assumed, looked up): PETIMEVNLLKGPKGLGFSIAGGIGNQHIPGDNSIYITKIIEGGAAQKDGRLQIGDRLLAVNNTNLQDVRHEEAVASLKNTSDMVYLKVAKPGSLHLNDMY

T9: PDZD7_3, Q9H5P4
T9 sequence (Q9H5P4 857-944, limits assumed, looked up): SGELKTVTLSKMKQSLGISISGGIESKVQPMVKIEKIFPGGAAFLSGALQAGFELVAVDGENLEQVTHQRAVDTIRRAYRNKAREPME

T10: APBA3_1, O96018
T10 sequence (O96018 389-490, limits assumed, looked up): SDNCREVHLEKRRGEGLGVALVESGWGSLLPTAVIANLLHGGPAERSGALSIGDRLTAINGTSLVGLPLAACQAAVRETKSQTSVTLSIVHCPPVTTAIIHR

T11: DLG3_1, Q92796
T11 sequence (Q92796 125-227, limits assumed, looked up): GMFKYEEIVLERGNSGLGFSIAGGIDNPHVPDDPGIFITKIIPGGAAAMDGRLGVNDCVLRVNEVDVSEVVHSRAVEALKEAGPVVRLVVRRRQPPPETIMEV

T12: TJP3_3, O95049
T12 sequence (O95049 375-456, limits assumed, looked up): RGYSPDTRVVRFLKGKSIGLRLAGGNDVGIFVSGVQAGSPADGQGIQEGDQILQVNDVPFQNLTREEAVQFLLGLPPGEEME

T13: DVL3, Q92997
T13 sequence (Q92997 244-331, limits assumed, looked up): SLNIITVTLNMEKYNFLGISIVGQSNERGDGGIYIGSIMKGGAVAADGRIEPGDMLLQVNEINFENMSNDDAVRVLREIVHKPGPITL


Each binder was assayed against T1, APBA2_1, Q99767 (assay: holdup assay). Details: plain residues with an end cap or a label only (N-terminal biotin on a linker: ado-ado).
Set-up: key: below the threshold = too weak to quantify, mostly under pKd 3.1 to 4

pKd | Binder
below the threshold | YAEKRMLTEV [KCNA6, P17658]

These binders were tested against T2, SHANK1, Q9Y566 (assay: holdup assay). Details: plain residues with an end cap or a label only (N-terminal biotin on a linker: ado-ado).
Set-up: key: below the threshold = too weak to quantify, mostly under pKd 3.1 to 4

pKd | Binder
below the threshold | YAEKRMLTEV [KCNA6, P17658]

The binders below were run against T3, FRMPD1, Q5SYB0 (assay: holdup assay). Details: plain residues with an end cap or a label only (N-terminal biotin on a linker: ado-ado).
Set-up: key: below the threshold = too weak to quantify, mostly under pKd 3.1 to 4

pKd | Binder
below the threshold | YAEKRMLTEV [KCNA6, P17658]

The binders below were run against SCRIB_2, Q14160 (assay: holdup assay). Details: plain residues with an end cap or a label only (N-terminal biotin on a linker: ado-ado).
Set-up: key: below the threshold = too weak to quantify, mostly under pKd 3.1 to 4

Chain of SCRIB_2, Q14160 (Q14160 857-960): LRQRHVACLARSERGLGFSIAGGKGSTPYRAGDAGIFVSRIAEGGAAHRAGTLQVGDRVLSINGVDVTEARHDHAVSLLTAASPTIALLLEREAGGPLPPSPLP

pKd | Binder
below the threshold | YAEKRMLTEV [KCNA6, P17658]

What follows are binders tested against Inadl_4, Q8NI35 (assay: holdup assay). Details: plain residues with an end cap or a label only (N-terminal biotin on a linker: ado-ado).
Set-up: key: below the threshold = too weak to quantify, mostly under pKd 3.1 to 4

Chain of Inadl_4, Q8NI35 (Q8NI35 547-651): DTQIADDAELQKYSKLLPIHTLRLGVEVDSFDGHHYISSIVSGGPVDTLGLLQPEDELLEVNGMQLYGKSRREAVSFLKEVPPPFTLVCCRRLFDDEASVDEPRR

pKd | Binder
below the threshold | YAEKRMLTEV [KCNA6, P17658]

These binders were tested against T4, SYNJ2BP, P57105 (assay: holdup assay). Details: plain residues with an end cap or a label only (N-terminal biotin on a linker: ado-ado).
Set-up: key: below the threshold = too weak to quantify, mostly under pKd 3.1 to 4

pKd | Binder
4.05 | YAEKRMLTEV [KCNA6, P17658]

The binders below were run against GRID2IP_2, A4D2P6 (assay: holdup assay). Details: plain residues with an end cap or a label only (N-terminal biotin on a linker: ado-ado).
Set-up: key: below the threshold = too weak to quantify, mostly under pKd 3.1 to 4

Chain of GRID2IP_2, A4D2P6 (A4D2P6 272-370): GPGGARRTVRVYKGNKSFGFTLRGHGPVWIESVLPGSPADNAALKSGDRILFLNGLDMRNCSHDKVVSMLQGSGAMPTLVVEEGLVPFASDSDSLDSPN

pKd | Binder
3.72 | YAEKRMLTEV [KCNA6, P17658]

These binders were tested against DLG1_2, Q12959 (assay: holdup assay). Details: plain residues with an end cap or a label only (N-terminal biotin on a linker: ado-ado).
Set-up: key: below the threshold = too weak to quantify, mostly under pKd 3.1 to 4

Chain of DLG1_2, Q12959 (Q12959 314-412): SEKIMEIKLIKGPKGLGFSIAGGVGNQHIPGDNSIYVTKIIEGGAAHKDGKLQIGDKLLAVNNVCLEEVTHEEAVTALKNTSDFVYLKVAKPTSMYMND

pKd | Binder
4.23 | YAEKRMLTEV [KCNA6, P17658]

What follows are binders tested against T5, SNTB1, Q13884 (assay: holdup assay). Details: plain residues with an end cap or a label only (N-terminal biotin on a linker: ado-ado).
Set-up: key: below the threshold = too weak to quantify, mostly under pKd 3.1 to 4

pKd | Binder
below the threshold | YAEKRMLTEV [KCNA6, P17658]

These binders were tested against T6, ARHGAP21, Q5T5U3 (assay: holdup assay). Details: plain residues with an end cap or a label only (N-terminal biotin on a linker: ado-ado).
Set-up: key: below the threshold = too weak to quantify, mostly under pKd 3.1 to 4

pKd | Binder
below the threshold | YAEKRMLTEV [KCNA6, P17658]

The binders below were run against T7, GRIP1_5, Q9Y3R0 (assay: holdup assay). Details: plain residues with an end cap or a label only (N-terminal biotin on a linker: ado-ado).
Set-up: key: below the threshold = too weak to quantify, mostly under pKd 3.1 to 4

pKd | Binder
below the threshold | YAEKRMLTEV [KCNA6, P17658]

The binders below were run against MAST1, Q9Y2H9 (assay: holdup assay). Details: plain residues with an end cap or a label only (N-terminal biotin on a linker: ado-ado).
Set-up: key: below the threshold = too weak to quantify, mostly under pKd 3.1 to 4

Chain of MAST1, Q9Y2H9 (Q9Y2H9 962-1065): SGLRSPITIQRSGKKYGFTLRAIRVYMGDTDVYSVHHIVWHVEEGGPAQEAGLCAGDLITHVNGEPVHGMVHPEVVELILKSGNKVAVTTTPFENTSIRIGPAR

pKd | Binder
4.65 | YAEKRMLTEV [KCNA6, P17658]

What follows are binders tested against T8, DLG3_2, Q92796 (assay: holdup assay). Details: plain residues with an end cap or a label only (N-terminal biotin on a linker: ado-ado).
Set-up: key: below the threshold = too weak to quantify, mostly under pKd 3.1 to 4

pKd | Binder
4.6 | YAEKRMLTEV [KCNA6, P17658]

The binders below were run against Inadl_6, Q8NI35 (assay: holdup assay). Details: plain residues with an end cap or a label only (N-terminal biotin on a linker: ado-ado).
Set-up: key: below the threshold = too weak to quantify, mostly under pKd 3.1 to 4

Chain of Inadl_6, Q8NI35 (Q8NI35 1058-1167): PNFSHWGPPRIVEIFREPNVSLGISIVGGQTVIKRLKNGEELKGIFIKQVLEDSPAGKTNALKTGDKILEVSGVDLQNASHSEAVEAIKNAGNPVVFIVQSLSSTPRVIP

pKd | Binder
below the threshold | YAEKRMLTEV [KCNA6, P17658]

The binders below were run against T9, PDZD7_3, Q9H5P4 (assay: holdup assay). Details: plain residues with an end cap or a label only (N-terminal biotin on a linker: ado-ado).
Set-up: key: below the threshold = too weak to quantify, mostly under pKd 3.1 to 4

pKd | Binder
4.95 | YAEKRMLTEV [KCNA6, P17658]

The binders below were run against HTRA1, Q92743 (assay: holdup assay). Details: plain residues with an end cap or a label only (N-terminal biotin on a linker: ado-ado).
Set-up: key: below the threshold = too weak to quantify, mostly under pKd 3.1 to 4

Chain of HTRA1, Q92743 (Q92743 360-477): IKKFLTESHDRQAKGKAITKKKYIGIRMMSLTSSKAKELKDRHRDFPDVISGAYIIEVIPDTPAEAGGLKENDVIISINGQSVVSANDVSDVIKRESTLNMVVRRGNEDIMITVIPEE

pKd | Binder
3.91 | YAEKRMLTEV [KCNA6, P17658]

These binders were tested against T10, APBA3_1, O96018 (assay: holdup assay). Details: plain residues with an end cap or a label only (N-terminal biotin on a linker: ado-ado).
Set-up: key: below the threshold = too weak to quantify, mostly under pKd 3.1 to 4

pKd | Binder
below the threshold | YAEKRMLTEV [KCNA6, P17658]

Each binder was assayed against GRIP2_4, Q9C0E4 (assay: holdup assay). Details: plain residues with an end cap or a label only (N-terminal biotin on a linker: ado-ado).
Set-up: key: below the threshold = too weak to quantify, mostly under pKd 3.1 to 4

Chain of GRIP2_4, Q9C0E4 (Q9C0E4 446-548): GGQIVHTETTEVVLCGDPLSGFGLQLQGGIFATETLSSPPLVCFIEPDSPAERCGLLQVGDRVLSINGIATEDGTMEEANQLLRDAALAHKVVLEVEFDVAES

pKd | Binder
below the threshold | YAEKRMLTEV [KCNA6, P17658]

Each binder was assayed against MAGI2_5, Q86UL8 (assay: holdup assay). Details: plain residues with an end cap or a label only (N-terminal biotin on a linker: ado-ado).
Set-up: key: below the threshold = too weak to quantify, mostly under pKd 3.1 to 4

Chain of MAGI2_5, Q86UL8 (Q86UL8 915-1017): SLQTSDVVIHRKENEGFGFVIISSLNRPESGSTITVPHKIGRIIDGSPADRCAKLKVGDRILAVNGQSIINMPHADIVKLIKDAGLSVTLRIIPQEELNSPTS

pKd | Binder
4.28 | YAEKRMLTEV [KCNA6, P17658]

The binders below were run against MAGI2_6, Q86UL8 (assay: holdup assay). Details: plain residues with an end cap or a label only (N-terminal biotin on a linker: ado-ado).
Set-up: key: below the threshold = too weak to quantify, mostly under pKd 3.1 to 4

Chain of MAGI2_6, Q86UL8 (Q86UL8 1141-1229): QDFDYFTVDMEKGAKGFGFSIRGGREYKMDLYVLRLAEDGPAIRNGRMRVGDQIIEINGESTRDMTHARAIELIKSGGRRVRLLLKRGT

pKd | Binder
below the threshold | YAEKRMLTEV [KCNA6, P17658]

These binders were tested against T11, DLG3_1, Q92796 (assay: holdup assay). Details: plain residues with an end cap or a label only (N-terminal biotin on a linker: ado-ado).
Set-up: key: below the threshold = too weak to quantify, mostly under pKd 3.1 to 4

pKd | Binder
below the threshold | YAEKRMLTEV [KCNA6, P17658]

Each binder was assayed against T12, TJP3_3, O95049 (assay: holdup assay). Details: plain residues with an end cap or a label only (N-terminal biotin on a linker: ado-ado).
Set-up: key: below the threshold = too weak to quantify, mostly under pKd 3.1 to 4

pKd | Binder
below the threshold | YAEKRMLTEV [KCNA6, P17658]

The binders below were run against T13, DVL3, Q92997 (assay: holdup assay). Details: plain residues with an end cap or a label only (N-terminal biotin on a linker: ado-ado).
Set-up: key: below the threshold = too weak to quantify, mostly under pKd 3.1 to 4

pKd | Binder
below the threshold | YAEKRMLTEV [KCNA6, P17658]

The binders below were run against PDLIM1, O00151 (assay: holdup assay). Details: plain residues with an end cap or a label only (N-terminal biotin on a linker: ado-ado).
Set-up: key: below the threshold = too weak to quantify, mostly under pKd 3.1 to 4

Chain of PDLIM1, O00151 (O00151 1-87): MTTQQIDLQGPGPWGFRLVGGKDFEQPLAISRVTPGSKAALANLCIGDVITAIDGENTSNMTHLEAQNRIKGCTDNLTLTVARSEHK

pKd | Binder
below the threshold | YAEKRMLTEV [KCNA6, P17658]

Reference: PMC9482650, “Quantitative fragmentomics allow affinity mapping of interactomes” (Nature Communications, 2022)
